The numbers were not newly measured in paper PMC4754043 (Human Molecular Genetics, 2015), which cites them from elsewhere.

The test system of this data set is human transmitochondrial cybrid cells and yeast with mt-tRNA mutations. The conditions noted are these: human cybrids and yeast; ref [9],[10],[11].

B1: mt-ValRS: mt-valyl-tRNA synthetase (protein, UniProt Q5ST30 27-1063, looked up)
Valine--tRNA ligase, …: SVSTQSEPHGSPISRRNREAKQKRLREKQATLEAEIAGESKSPAESIKAWRPKELVLYEIPTKPGEKKDVSGPLPPAYSPRYVEAAWYPWWVREGFFKPEYQARLPQATGETFSMCIPPPNVTGSLHIGHALTVAIQDALVRWHRMRGDQVLWVPGSDHAGIATQAVVEKQLWKERGVRRHELSREAFLREVWQWKEAKGGEICEQLRALGASLDWDRECFTMDVGSSVAVTEAFVRLYKAGLLYRNHQLVNWSCALRSAISDIEVENRPLPGHTQLRLPGCPTPVSFGLLFSVAFPVDGEPDAEVVVGTTRPETLPGDVAVAVHPDDSRYTHLHGRQLRHPLMGQPLPLITDYAVQPHVGTGAVKVTPAHSPADAEMGARHGLSPLNVIAEDGTMTSLCGDWLQGLHRFVAREKIMSVLSEWGLFRGLQNHPMVLPICSRSGDVIEYLLKNQWFVRCQEMGARAAKAVESGALELSPSFHQKNWQHWFSHIGDWCVSRQLWWGHQIPAYLVVEDHAQGEEDCWVVGRSEAEAREVAAELTGRPGAELTLERDPDVLDTWFSSALFPFSALGWPQETPDLARFYPLSLLETGSDLLLFWVGRMVMLGTQLTGQLPFSKVLLHPMVRDRQGRKMSKSLGNVLDPRDIISGVEMQVLQEKLRSGNLDPAELAIVAAAQKKDFPHGIPECGTDALRFTLCSHGVQAGDLHLSVSEVQSCRHFCNKIWNALRFILNALGEKFVPQPAEELSPSSPMDAWILSRLALAAQECERGFLTRELSLVTHALHHFWLHNLCDVYLEAVKPVLWHSPRPLGPPQVLFSCADLGLRLLAPLMPFLAEELWQRLPPRPGCPPAPSISVAPYPSACSLEHWRQPELERRFSRVQEVVQVLRALRATYQLTKARPRVLLQSSEPGDQGLFEAFLEPLGTLGYCGAVGLLPPGAAAPSGWAQAPLSDTAQVYMELQGLVDPQIQLPLLAARRYKLQKQLDSLTARTPSEGEAGTQRQQKLSSLQLELSKLDKAASHLRQLMDEPPAPGSPEL
Regarding B1, the “rescue of defects due to mutations in non-cognate as well as cognate mt-tRNAs” value is “able to rescue”.
